The assay addresses 人ROR1 ECD蛋白 (胞外结构域aa30-406) (human) (UniProt Q01973). The assay can be described thus: BLI (Octet ForteBio), antibody on AHC probe, human ROR1 ECD in solution, 1:1 model; mean of two determinations.
Chain of UniProt Q01973 (Q01973 30-406): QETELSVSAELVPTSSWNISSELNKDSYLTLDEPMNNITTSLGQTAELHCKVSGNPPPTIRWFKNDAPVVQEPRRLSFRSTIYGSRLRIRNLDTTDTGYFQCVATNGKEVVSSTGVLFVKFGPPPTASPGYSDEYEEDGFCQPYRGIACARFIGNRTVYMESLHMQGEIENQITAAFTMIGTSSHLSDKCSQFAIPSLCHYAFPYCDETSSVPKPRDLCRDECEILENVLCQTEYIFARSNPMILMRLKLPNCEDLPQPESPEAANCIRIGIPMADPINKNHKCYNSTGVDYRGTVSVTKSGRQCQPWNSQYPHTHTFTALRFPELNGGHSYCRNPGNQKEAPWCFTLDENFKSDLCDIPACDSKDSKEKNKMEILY

B1: 抗人ROR1抗体UC961 (带有人IgG1) (antibody, from another filing, V domains shown)
VH: QVQLQESGPGLVKPSQTLSLTCTVSGYAFTAYNIHWVRQAPGQGLEWMGSFDPYDGGSSYNQKFKDRLTISKDTSKNQVVLTMTNMDPVDTATYYCARGWYYFDYWGHGTLVTVSS
VL: DIVMTQTPLSLPVTPGEPASISCRASKSISKYLAWYQQKPGQAPRLLIYSGSTLQSGIPPRFSGSGYGTDFTLTINNIESEDAAYYFCQQHDESPYTFGEGTKVEIK
Consider B1, for which the Kd (usually the free concentration of one partner at which half of the binding sites on the other are occupied at equilibrium, for simple one-to-one binding) worked out at 15.8 nM; the koff (in general, a measure of how fast the partners let go of each other) was 0.0137 s⁻¹; the kon – broadly, the rate constant with which the complex forms – came out at 981000 M⁻¹ s⁻¹.
